These results are taken from patent publication EP4793287A1, “TUMOR MICROENVIRONMENT SPECIFICALLY ACTIVATED CD47 ANTIBODY” (Affinity (Shanghai) Biopharmaceutical Co., Ltd., priority 2023, dated 2025).

Substitutions are numbered along the chain they refer to. Numbers in names are those of the source. Where two headings read alike, the source gives them in different places.

The target in experiment [1] is T1, CD47 on CHOK1-CD47 cells (UniProt Q08722 19-323).
T1 construct: whole, on cells; The rabbits were immunized with human CD47, so human is likely
T1 sequence (Q08722 19-323 limits assumed): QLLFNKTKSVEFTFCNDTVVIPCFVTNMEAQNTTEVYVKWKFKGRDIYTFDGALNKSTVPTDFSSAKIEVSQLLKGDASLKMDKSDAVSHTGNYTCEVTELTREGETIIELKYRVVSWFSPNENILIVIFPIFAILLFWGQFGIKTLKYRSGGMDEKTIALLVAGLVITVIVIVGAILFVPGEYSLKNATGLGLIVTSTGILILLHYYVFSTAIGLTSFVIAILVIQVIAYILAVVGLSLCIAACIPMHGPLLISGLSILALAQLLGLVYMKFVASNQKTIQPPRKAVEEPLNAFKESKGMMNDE
Kind of experiment: flow cytometry on CHOK1-CD47 cells. On the technique in general: A flow cytometer gives signals particle by particle.

For experiment [2], the target named is T2, CD47 on Raji cells (human, UniProt Q08722 19-323).
T2 construct: whole, on cells
T2 sequence (Q08722 19-323): as the sequence (Q08722 19-323 limits assumed) above
Put plainly: flow cytometry on Raji cells.

Experiment [3] concerns the target T3, Recombinant human CD47 protein (DIMA BIOTECH, Cat# PME-100008) (human, UniProt Q08722 19-139, limits assumed).
T3 construct: Bought protein, coated on ELISA plates; also called CD47 antigen
Put plainly: ELISA on coated recombinant human CD47. On the technique in general: In an ELISA, binding on a coated surface is turned into a signal by an enzyme label.

Experiment [4] has as its target antibody antigen (CD47) coated in the ELISA of Example 3 (UniProt Q08722). Kind of experiment: ELISA on coated antigen, ratio against wild-type 70H1.
Experiment [5] concerns the target T1, CD47 on CHOK1-CD47 cells. Kind of experiment: flow cytometry on CHOK1-CD47 cells. This is another data set of the same source.
In experiment [6] the target is T4, human CD47 antigen (immobilized on CM5 chip, Biacore) (human, UniProt Q08722 19-139, limits assumed). Kind of experiment: SPR (Biacore T200), CD47 antigen on CM5 chip, antibody as analyte, 1:1 model. In general terms: Surface plasmon resonance follows binding to a sensor surface in real time, without labels.
T4 sequence (Q08722 19-139 limits assumed): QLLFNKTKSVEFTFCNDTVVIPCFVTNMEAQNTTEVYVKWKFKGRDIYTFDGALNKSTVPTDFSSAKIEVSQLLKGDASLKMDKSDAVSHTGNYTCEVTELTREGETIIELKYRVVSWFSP
In experiment [7] the target is T1, CD47 on CHOK1-CD47 cells. Kind of experiment: flow cytometry on CHOK1-CD47 cells. The source holds these as a separate data set.
Experiment [8] concerns the target T2, CD47 on Raji cells. Kind of experiment: flow cytometry on Raji cells. This is another data set of the same source.
Experiment [9] has as its target T4, human CD47 antigen (immobilized on CM5 …). Kind of experiment: SPR (Biacore T200).
The target in experiment [10] is T3, Recombinant human CD47 protein (DIMA …). Put plainly: ELISA on coated recombinant human CD47. This is another data set of the same source.

T3 sequence (Q08722 19-139 limits assumed): as above
Sequence of antibody antigen (CD47) coated in the ELISA of Example 3 (Q08722 19-139 limits assumed): as above

B1: 71D6 (antibody, V domains shown)
VH: QSLEESGGDLVKPGASLTLTCTASGFSFSTSYWIYWVRQAPGKGLELIACIATGSDGSTYYASWASGRFTISKTSSTTVTLQMTSLTAADTATYFCAREAGNGVYNLWGQGTLVTVSS
VL: AYDMTQTPASVEVAVGGTVTIKCQASESIRNALAWYQQKPGQPPKLLISGASKLASGVASRFKGSGSATEFTLTISDLECADAATYYCQQYYSSSNVDNGFGGGTEVVVK
notes: Recombinant rabbit monoclonal antibody expressed in Expi293; it was detected with anti-human IgG Fc
In the experiment with CD47 on CHOK1-CD47 cells [1], B1 returned an EC50 of 3.8 nM.

B2: 70H1.IgG1.Y61C (antibody, V domains shown)
VH: QQQLEESGGGLVKPEGSLTLTCTASGFSFSSGYDMCWVRQAPGRGLEWIACIYTRSSGGTCYASWAKGRFTISKTSSTVDLRMTSLTAADTATYFCAGGRSSYRLNLWGQGALVTVSS
VL: DVVMTQTPSPVEAAVGGTVTIKCQASQSISNELSWYQQKPGQPPKLLIYRASTLESGVSSRFKGSGSGTEFTLTISDLECADAATYYCQSTFYGDYGNAFGGGTEVVVK
notes: IgG1; also called 70H1 IgG1-mutation; 70H1 mutant VH-61 (Y-C)
Regarding B2, the EC50 with CD47 on Raji cells [2] amounted to 0.47 nM; in [3] it was 0.07 nM; with CD47 on CHOK1-CD47 cells [5], 0.39 nM. For the same molecule, the Mutant Binding Strength (EC50 post-mutation / EC50 wild-type) in experiment [4] turned out to be 1.

B3: 70H1 (antibody, V domains shown)
VH: B2 VH with C61Y
VL: B2 VL
notes: Rabbit-derived variable regions; also called 70H1.IgG1; 70H1 antibody
As for B3, the EC50 in experiment [3] was found to be 0.12 nM; in the experiment with CD47 on CHOK1-CD47 cells [1], 0.91 nM; in the experiment with CD47 on CHOK1-CD47 cells [5], 0.38 nM; with CD47 on CHOK1-CD47 cells [7], 0.35 nM. The molecule further gave an equilibrium dissociation constant (Kd) in experiment [6] of 0.0308 nM. Moreover, the koff in experiment [6] is 0.00014 s⁻¹. The kon in experiment [6] was determined as 4.54e+06 M⁻¹ s⁻¹.

B4: 74F1 (antibody, V domains shown)
VH: QQQLEESGGDLVKPEGSLTLTCTASGFSFSSRYNMCWVRQAPGKGLEWIACIYTGSSGSTYYASWAKGRFTISKTSSTVDLKMTSLTAADTATYFCAGGSYSYRLNLWGQGTLVTVSS
VL: B2 VL with S9A, P10S, E12S, A13T, K63S, S90A, F92G, Y96F
notes: as for B1
In turn, B4 registered an EC50 in the experiment with CD47 on CHOK1-CD47 cells [1] of 2.82 nM.

B5: CD47 TMEAbody activated (antibody, IgG1, V domains shown)
VH: B2 VH
VL: B2 VL
modifications: Cys 61 (Y61C): 20K PEG blocker cleaved off by legumain (asparaginyl endopeptidase); what remains on the Cys is not stated
notes: The CD47 TMEAbody after treatment with legumain / asparaginyl endopeptidase; IgG1
B5: the results for the EC50 (in the experiment with CD47 on Raji cells [2]; in experiment [3]; in the experiment with CD47 on CHOK1-CD47 cells [5]) were 0.24 nM, 0.15 nM and 0.91 nM, respectively.

B6: CD47 TMEAbody (70H1.IgG1.Y61C + 20K PEG) (antibody, V domains shown)
VH: B2 VH
VL: B2 VL
modifications: Cys 61 (Y61C) conjugated with PEG of approximately 20K molecular weight (blocker, cleavable by legumain)
notes: IgG1; The same question of backbone applies as for 70H1.IgG1.Y61C; also called 70H1 TMEAbody; 70H1; IgG1 + 20K PEG
Consider B6, for which the EC50 in the experiment with CD47 on Raji cells [2] amounted to 31.9 nM; in experiment [3], 0.72 nM; in the experiment with CD47 on CHOK1-CD47 cells [5], 7.6 nM. Moreover, the “fold lower binding compared to 70H1” value in the experiment with CD47 on Raji cells [8] is around 60 fold; with CD47 on CHOK1-CD47 cells [1], around 20 fold. The Kd in experiment [6] stood at 14.1 nM. The same molecule yielded a koff in [6] of 0.000343 s⁻¹. The molecule further showed a kon in [6] of 24400 M⁻¹ s⁻¹. Also, in [9], the “fold decrease of affinity compared to 70H1” value came out at 470 fold. For the same molecule, in experiment [10], the “fold weaker binding affinity compared to 70H1” value is around 7 fold.

By EC50 is commonly meant the midpoint of the concentration-response curve. The term Kd denotes the equilibrium constant for the complex coming apart. A higher Kd goes with a looser complex. In general, koff refers to the first-order rate constant of dissociation. A higher koff goes with a short-lived complex. The term kon denotes the second-order rate constant of association. A higher kon goes with fast association.
